In patent publication US20230279105A1 (SINGLE CELL TECHNOLOGY, published 2023):
Where a chain is given by its changes, count along the chain named.

B1: SCT-Fa172 (antibody, V domains shown)
VH: QVQLQQSGAELARPGASVKLSCKASGYTFTSYGISWVKQRTGQGLEWIGEIYPRSGNTYYNEKFKGKATLTADKSSSTAYMELRSLTSEDSAVYFCARSTYGSSSYAMDYWGQGTSVTVSS
VL: DVLMTQTPLSLPVSLGDQASISCRSSQSIVHSNGNTYLEWYLQKPGQSPKLLIYKVSNRFSGVPDRFSGSGSGTDFTLKISRVEAEDLGVYYCFQGSHVPYTFGGGTKLEIK
notes: murine IgG
B2: SCT-Fa176 (antibody, V domains shown)
VH: QVQLQQSGAELVRPGASVTLSCKASGYTFTDFEMHWVKQTPVHGLEWIGAIDPETGGTAYNQKFKGKAILTADRSSSTAYMELRSLTSEDSAVYYCTRGIYYGNYGSAMDYWGQGTSVTVSS
VL: B1 VL with V99A, Y101L, G105A, I111L
notes: murine IgG
B3: SCT-Fa169 (antibody, V domains shown)
VH: QVQLQQPGTELVMPGASVNLSCKASGYTFTSYWMHWVKQRPGQGLEWIGEIDPSDSYANYNQNFKGKATLTVDKSSITAYMQLSSLTSEDSAVYYCARNYGSNYVGYFDYWGQGTTLTVSS
VL: DIQMTQTTSSLSASLGDRVTISCRASQDISNYLNWYQQKPDGTVKLLIYYTSRLHSGVPSRFSGSGSGTDYSLTISNLDQEDIATYFCQQEKTLPWTFGGGTKLEIK
notes: murine IgG
B4: SCT-Fa170 (antibody, V domains shown)
VH: QVQLQQSGAELARPGASVKLSCKASGYTFRSYGLSWVKQRTGQGLEWIGEIYPRSGNTYYNEKFKDRVTLTADKSSSAAYMELRSLTSEDSAVYFCARSTAVVAGGFDYWGQGTALTVSS
VL: DIVMTQSPSSLTVTAGEKVTMSCKSSQSLFNSRTQKNSLTWYQQKPGQPPKLLIFWASTRESGVPDRFTGSASGTDFTLTLSGVQAEDLAIYYCQNDYTYPWTFGGGTKLEIK
notes: murine IgG
B5: SCT-Fa171 (antibody, V domains shown)
VH: B4 VH with R30T, S31N, L34I, T58S, D66G, R67K, V68A, A78T, V102I, A115T
VL: B4 VL with F30L, T34I, F55Y, G70A, A72G, L81I, G83S, I91V
notes: murine IgG
B6: SCT-Fa151 (antibody, V domains shown)
VH: QVQLQQPGSELVRPGTSVKLSCKASGYTFTSYWMHWVKQRPGQGLEWIGVIDPSDNNTHYNQKFTGKATLTVDTSSSTAYMHLSSLTSEDSAVFYCARNDYDGGYFDFWGQGTTLTVSS
VL: DVVMTQTPLSLPVSLGDHASISCRSSQSLVHSNGHTYLHWYLQKPGQSPKLLIDKVSNRFSGVPDRFSGSGSGTDFTLKISRVEAEDLGVYFCSQSTHVPWTFGGGTKLEIK
notes: murine IgG
B7: SCT-Fa177 (antibody, V domains shown)
VH: QVQLQQSGAELVRPGASVTLSCKASGYTFTDYEMYWVKQTPVHGLEWIGVIDPETGGTAHDQKFKGKAILTADKSSSTAYMELRSLTSEDSAVYYCTRWAFWGQGTLVTVSA
VL: B6 VL with H18Q, H35N, D54Y, K79R, E86D, W101Y
notes: murine IgG
B8: SCT-Fa174 (antibody, V domains shown)
VH: QVQLQQSGAELVKPGASVKLSCKASGYSITGYYIHWVKQRPGQGLEWIGWIYPGSGSIKYNEKFKGKATLTADTSSSTADMQLSSLTSEDSAVYYCAREAWGNWYFDVWGTGTTVTVSS
VL: DILLTQSPAILSVSPGERVSFSCRASQSIGTSIHWYQQRTNGSPRLLIKYASESISGIPSRFSGSGSGTDFTLSINSVESEDIADYYCQQSNSWPYTFGGGTKLEIK
notes: murine IgG
B9: SCT-Fa173 (antibody, V domains shown)
VH: B7 VH with V12M, T30P, H60Y, D61N, K65E, G66V, S77N, F101Y
VL: QIVLTQSPAIMSASLGERVTMTCTASSSVSSSYLHWYQQKPGSSPKLWVYSTSNLASGVPGRFSGSGSGTSYSLTISSMEAEDAATYYCHHYHRSPPTFGGGTKLEIK
notes: murine IgG
B10: SCT-Fa175 (antibody, V domains shown)
VH: QVQLQQSGAELVRPGASVTLSCKASGYTFSDYEMHWVKQTPVHGLEWIGVIDPETGDTAYNQKFKDKAVLTADKSSNTAYMELRSLTSEDSAVFFCTSNGYPEHWGQGTTLTVSS
VL: B9 VL with S28G, S32T, K40R, V49I, N54T, G61A, H91Q, P97L, G101A, I107L
notes: murine IgG
B11: SCT-Fa178 (antibody, V domains shown)
VH: B7 VH
VL: B9 VL with H93N
notes: murine IgG
B12: SCT-Fa158 (antibody, V domains shown)
VH: QVQLQQPGTELVKPGASVKVSCKASGYTFISYWMHWVKQRPGQGLEWIGNIDPNSGTTNYNEKFKTKATLTVDKSSSTAYMQLSSLTSEDSAVYYCARWGWDGFAYWGQGTLVTVSA
VL: DAVMTQTPLSLPVSLGDQASISCRSSQSLENSNGNTYLNWYLQKPGQSPQLLIYRVSTRFSGVLDRFSGSGSGTDFTLKISRVEAEDLGVYFCLQVTHVPYTFGGGTKLEIK
notes: murine IgG
B13: SCT-Fa163 (antibody, V domains shown)
VH: B12 VH with S55Y, T57G, T58S, T66S
VL: DIQMTQSPSSLSASLGERVSLTCRASQDIGSSLNWLQQEPDGTIKRLIYATSSLDSGVPKRFSGSRSGSDYSLTISSLESEDFVDYYCLQYASSPFTFGSGTKLEIK
notes: murine IgG
B14: SCT-Fa161 (antibody, V domains shown)
VH: B12 VH with S55Y, T57G, T58P
VL: QIVLTQSPALMSASPGEKVTMTCSASSSVSYMYWYQQKPRSSPKPWIYLTSNLASGVPARFSGSGSGTSYSLTISSMEAEDAATYYCQQWSSNPFTFGSGTKLEIK
notes: murine IgG
B15: SCT-Fa153 (antibody, V domains shown)
VH: B12 VH with E46D, S55N, T57G, T66S
VL: B12 VL with N33Y
notes: murine IgG
B16: SCT-Fa165 (antibody, V domains shown)
VH: B12 VH with I30V, M34I, S55N, T57G, T58S, K63R, K65R, T87A
VL: B12 VL with V96L
notes: murine IgG
B17: SCT-Fa168 (antibody, V domains shown)
VH: B12 VH with A24T
VL: B12 VL
notes: murine IgG
B18: SCT-Fa160 (antibody, V domains shown)
VH: B12 VH with S55Y, T57G, T58P
VL: B12 VL with T58N, V96L
notes: murine IgG
B19: SCT-Fa164 (antibody, V domains shown)
VH: B12 VH with D52N, S55N, T57G, T66S
VL: B12 VL
notes: murine IgG
B20: SCT-Fa159 (antibody, V domains shown)
VH: B12 VH with S55Y, T57G, T58P
VL: B12 VL with T58N, V96I
notes: murine IgG
B21: SCT-Fa166 (antibody, V domains shown)
VH: B12 VH with I30V, S55N, T57G, T58S, K63R, K65R, T87A
VL: B12 VL with V96L
notes: murine IgG
B22: SCT-Fa152 (antibody, V domains shown)
VH: B12 VH with W33C, E46D, S55N, T57G, T58P
VL: B12 VL with T58N
notes: murine IgG
B23: SCT-Fa157 (antibody, V domains shown)
VH: B12 VH with T57I, T66S, T69I
VL: B12 VL with A2V, V56I
notes: murine IgG
B24: SCT-Fa155 (antibody, V domains shown)
VH: B12 VH with T57G, T66S, T69I, Y95F
VL: B12 VL with A2V, V56I
notes: murine IgG
B25: SCT-Fa154 (antibody, V domains shown)
VH: B12 VH with T57G, N59K, T66S, T69I, A97T
VL: B12 VL with A19V, V56I
notes: murine IgG
B26: SCT-Fa156 (antibody, V domains shown)
VH: B12 VH with T57G, T66S, T69I, A97T
VL: B12 VL with A19V, V56I
notes: murine IgG
B27: SCT-Fa078 (antibody, V domains shown)
VH: QGQLQQPGAEVVKPGAAVKLSCKASGYTFTSYWMQWIKQRPGQGLDWIGEIDPSDNYTDYNQNFKGKATLTVDTSSNTAYLQLSSLTSEDSAVYYCAREGAFSSPFAYWGPGTLVTVSS
VL: DILMTQSPSSMSVSLGDTVSIICHASQDIRSNIGWLQQKPGKSFKGLIYHGTNLEDGVPSRFSGSGSGADYSLTISSLESEDFADYYCVQYVQFPRTFGGGTKLEIK
notes: murine IgG
B28: SCT-Fa081 (antibody, V domains shown)
VH: B27 VH with D46E, N77S, R98K
VL: B27 VL
notes: murine IgG
B29: SCT-Fa148 (antibody, V domains shown)
VH: B27 VH with G2V, A17S, I37V, D46E, N77S, L81M, R98K, F102Y, S119A
VL: B27 VL with S20T, Q37R, K42T
notes: murine IgG
B30: SCT-Fa080 (antibody, V domains shown)
VH: B27 VH with D46E, N63H, N77S
VL: B27 VL
notes: murine IgG

Target: T1, Human TIM-3 Human Fc tagged protein (human, fluorescently labeled with HiLyte Fluor 555 (sites not given))
T1 construct: Bought construct; also called TIM-3 protein tagged with human Fc; ACROBiosystems catalog no: TM3-H5258
Assay: capture slide probed with labeled TIM-3-Fc;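 note: IgG from single CD138-enriched plasma cells, isolated from lymphocytes, immobilized on a derivatized glass slide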

Binding result, binds:
B1
B2
B3
B4
B5
B6
B7
B8
B9
B10
B11
B12
B13
B14
B15
B16
B17
B18
B19
B20
B21
B22
B23
B24
B25
B26
B27
B28
B29
B30
